In the RNAGym collection of RNA variant scans (doi:10.7554/elife.80360) one finds self-cleavage data, which are given here for 39 variants.

The chains are these.
B1: CPEB3 Ribozyme (parent)
chain: GGGGGCCACAGCAGAAGCGUUCACGUCGCGGCCCCUGUCAGAUUCUGGUGAAUCUGCGAAUUCUGCUGU

The variants in the series derive from B1. Briefly: self-cleavage, relative activity (ratio to wild type); higher = more cleavage; co-transcriptional.
Regarding GGGGGCCACAGCAGAAGCGUUCACGUCGCGGCCCCUGUCAGCUUCUGGUGAAUCUGCCAAUUCUGCUGU, the self-cleavage came out at 1.04.
The figure for GGGGGCCACAGCAGAAGCGUUCACGUCGCGGCCCCUGUCAUAUUCUGGUGAAUCUGCGAAUUCUGCUGG is 1.02; for GGGGGCCACAGCAGAAGCGUUCACGUCGCGGCCCCUGUCAUAUUCUGGUGAAUCUGCGAAUUCUGCUGA it is 0.995.
For the variant GGGGGCCACAGCAGAAGCGUUCACGUCGCGGCCCCUGUCAGGUUCUGGUGAAUCUGCGAAUUCUGCUGU, the self-cleavage was determined as 0.951.
Then GGGGGCCACAGCAGAAGCGUUCACGUCGCGGCCCCUGUCAGCUUCUGGUGAAUCUGCGAAUUCUGCUGU, with 0.961; and GGGGGCCACAGCAGAAGCGUUCACGUCGCGGCCCCUGUCAGCUUCUGGUGAAUCUGCGAAUUCGGCUGU, with 0.769; and GGGGGCCACAGCAGAAGCGUUCACGUCGCGGCCCCUGUCAGCUUCUGGUGAAUCUGCGAAUUCAGCUGU, with 0.625.
Turning to GGGGGCCACAGCAGAAGCGUUCACGUCGCGGCCCCUGUCAUAUUCUGGUGAAUCUGCGAAGUCUGCUGU, the self-cleavage was 0.314.
Then GGGGGCCACAGCAGAAGCGUUCACGUCGCGGCCCCUGUCAUAUUCUGGUGAAUCUGCGAACUCUGCUGU, with 0.402.
Regarding GGGGGCCACAGCAGAAGCGUUCACGUCGCGGCCCCUGUCAUAUUCUGGUGAAUCUGCGAAAUCUGCUGU, the self-cleavage is 0.64.
The figure for GGGGGCCACAGCAGAAGCGUUCACGUCGCGGCCCCUGUCAGCUUCUGGUGAAUCUGCGAAUUAUGCUGU is 0.547; for GGGGGCCACAGCAGAAGCGUUCACGUCGCGGCCCCUGUCAGCUUCUGGUGAAUCUGCGAAUUGUGCUGU it is 0.542.
Then GGGGGCCACAGCAGAAGCGUUCACGUCGCGGCCCCUGUCAGCUUCUGGUGAAUCUGCGAAUUCUGCUGC, with 1.05.
Then GGGGGCCACAGCAGAAGCGUUCACGUCGCGGCCCCUGUCAGCUUCUGGUGAAUCUGCGAAUUCUGCUGA, with 1.02.
With GGGGGCCACAGCAGAAGCGUUCACGUCGCGGCCCCUGUCAGCUUCUGGUGAAUCUGCGAAUUCUGCUGG, the self-cleavage is 1.01.
On to GGGGGCCACAGCAGAAGCGUUCACGUCGCGGCCCCUGUCAGCUUCUGGUGAAUCUGCGAAUUCUGGUGU, for which the self-cleavage was determined as 0.661.
The figure for GGGGGCCACAGCAGAAGCGUUCACGUCGCGGCCCCUGUCAGCUUCUGGUGAAUCUGCGAAUUCUGUUGU is 0.96; for GGGGGCCACAGCAGAAGCGUUCACGUCGCGGCCCCUGUCAGCUUCUGGUGAAACUGCGAAUUCUGCUGU it is 1.03.
The figure for GGGGGCCACAGCAGAAGCGUUCACGUCGCGGCCCCUGUCAGCUUCUGGUGAAUCUGCGAAUUCUACUGU is 0.627; for GGGGGCCACAGCAGAAGCGUUCACGUCGCGGCCCCUGUCAUAUUCUGGUGAAUCUGCGAAUUCGGCUGU it is 0.441.
Consider GGGGGCCACAGCAGAAGCGUUCACGUCGCGGCCCCUGUCAUAUUCUGGUGAAUCUGCGAAUUCCGCUGU, for which the self-cleavage stood at 0.382.
Then GGGGGCCACAGCAGAAGCGUUCACGUCGCGGCCCCUGUCAUAUUCUGGUGAAUCUGCGAAUUCAGCUGU, with 0.501; and GGGGGCCACAGCAGAAGCGUUCACGUCGCGGCCCCUGUCAGCUUCUGGUGAAUCUGCGAAUACUGCUGU, with 0.673; and GGGGGCCACAGCAGAAGCGUUCACGUCGCGGCCCCUGUCAGCUUCUGGUGAAUCUGCGAAUCCUGCUGU, with 0.659.
Regarding GGGGGCCACAGCAGAAGCGUUCACGUCGCGGCCCCUGUCAGCUUCUGGUGAAUCUGCGAAUGCUGCUGU, the self-cleavage came to 0.757.
Then GGGGGCCACAGCAGAAGCGUUCACGUCGCGGCCCCUGUCAGGUUCUGGUGAAUCUGCGGAUUCUGCUGU, with 0.81.
Then GGGGGCCACAGCAGAAGCGUUCACGUCGCGGCCCCUGUCAGGUUCUGGUGAAUCUGCGCAUUCUGCUGU, with 0.577; and GGGGGCCACAGCAGAAGCGUUCACGUCGCGGCCCCUGUCAGCUUCUGGUGAAUCUGCGAAUUCUGCAGU, with 0.964; and GGGGGCCACAGCAGAAGCGUUCACGUCGCGGCCCCUGUCAGCUUCUGGUGAAUCUGCGAAUUCUGCCGU, with 0.97.
Then GGGGGCCACAGCAGAAGCGUUCACGUCGCGGCCCCUGUCAUAUUCUGGUGAAUCUGCGAAUUCUGCCGU, with 0.872; and GGGGGCCACAGCAGAAGCGUUCACGUCGCGGCCCCUGUCAGCUUCUGGUAAAUCUGCGAAUUCUGCUGU, with 0.952.
In the case of GGGGGCCACAGCAGAAGCGUUCACGUCGCGGCCCCUGUCAGCUUCUGGUCAAUCUGCGAAUUCUGCUGU, the self-cleavage is 0.858.
Then GGGGGCCACAGCAGAAGCGUUCACGUCGCGGCCCCUGUCAGCUUCUGGUGAAUCUGAGAAUUCUGCUGU, with 0.398; and GGGGGCCACAGCAGAAGCGUUCACGUCGCGGCCCCUGUCAGCUUCUGGUGAAUCUGUGAAUUCUGCUGU, with 0.376; and GGGGGCCACAGCAGAAGCGUUCACGUCGCGGCCCCUGUCAGCUUCUGGUGAAUCUGGGAAUUCUGCUGU, with 0.342.
As to GGGGGCCACAGCAGAAGCGUUCACGUCGCGGCCCCUGUCAGGUUCUGGUGACUCUGCGAAUUCUGCUGU, the self-cleavage came out at 0.854.
Then GGGGGCCACAGCAGAAGCGUUCACGUCGCGGCCCCUGUCAGGUUCUGGUGAUUCUGCGAAUUCUGCUGU, with 0.718; and GGGGGCCACAGCAGAAGCGUUCACGUCGCGGCCCCUGUCAGCUUCUGGUGAAUCUGCGAUUUCUGCUGU, with 0.459; and GGGGGCCACAGCAGAAGCGUUCACGUCGCGGCCCCUGUCAGCUUAUGGUGAAUCUGCGAAUUCUGCUGU, with 0.851.
